Assay [1] concerns biotin-binding dsDNA [SEQ ID NOs: 1 and 2]. Put plainly: Biolayer interferometry of DNA and OhrR binding on a photosensor. On the procedure: A binding degree between DNA and a protein on the surface of a photosensor (optical fiber) was measured using an instrument for biolayer interferometry (Blitz, Fortebio, USA).
Binding buffer, washing buffer: TBS (Tris 20 mM, NaCl 150 mM)
DNA binding time, OhrR binding time: 2 min
DNA concentration: 2.5 μM
OhrR concentration: 50 μM
CHP concentration: 100 μM
First, biotin-binding dsDNA [SEQ ID NOs: 1 and 2] was dissolved in a TBS buffer at the above-mentioned concentration, bound to a streptavidin-coated photosensor (optical fiber) by flowing the resulting mixture for 120 seconds, and washed with a buffer, and then the OhrR protein was associated with dsDNA binding to the photosensor by additionally flowing the protein dissolved in a TBS buffer at the above-described concentration for 120 seconds (association). After the association was completed, by additionally flowing only a buffer for 120 seconds, the dissociation process of the DNA-OhrR complex was confirmed (dissociation).
In biolayer interferometry, when a biomaterial (DNA or OhrR) is bound to the surface of a photosensor, a change in the surface refractive index of the photosensor is necessarily accompanied (the refractive index has a positive correlation with the concentration of a biomaterial), and the principle of converting the change in refractive index to a thickness is applied. […]
(Biolayer interferometry detects binding as a change in optical thickness at a sensor tip.)

In assay [2] the target is DNA. The assay can be described thus: DNA binding strength of OhrR.
Assay [3] concerns FAM-bound double strand (ds) DNA [SEQ ID NOs: 1 and 2]. Put plainly: OhrR and target DNA binding by polyacrylamide gel electrophoresis. As to conditions: dsDNA 200 nM, room temperature 30 minutes, 7% polyacrylamide gel. On the procedure:
Fluorescent probe (FAM)-bound double strand (ds) DNA (200 nM) [SEQ ID NOs: 1 and 2] and OhrR at concentrations shown in FIG. 3 were mixed and reacted at room temperature for 30 minutes, and then a dsDNA band was detected using a fluorescence spectrometer (KIF-300, Korea Lab Tech, Korea) through electrophoresis (25 mA, 30 min) using a polyacrylamide gel (7%). It can be seen that the fluorescent band of dsDNA shifted upward from an OhrR concentration of about 1.6 μM (concentration about 8 fold higher than DNA concentration).

Assay [4] can be described thus: Second order reaction rate between a biothiol and the redox-regulating protein. Format: biochemical.

Results on one molecule are retold here after patent US20190331690A1, “BIOTHIOL DETECTION COMPOSITION COMPRISING REDOX REGULATION PROTENIN” (INDUSTRY-UNIVERSITY COOPERATION FOUNDATION HANYANG …, priority 2016, published 2019).

B1: OhrR: redox-regulating protein, organic hydroperoxide regulator, cloned in B. subtilis strain, SEQ ID NO: 3, homodimer, 17 kD (protein, listed as Bacillus subtilis)
chain: MENKFDHMKLENQLCFLLYASSREMTKQYKPLLDKLNITYPQYLALLLLWEHETLTVKKMGEQLYLDSGTLTPMLKRMEQQGLITRKRSEEDERSVLISLTEDGALLKEKAVDIPGTILGLSKQSGEDLKQLKSALYTLLETLHQKN
modifications: homodimer
Consider B1, for which the “binding thickness (dissociation equilibrium of OhrR minus dsDNA binding equilibrium)” value in assay [1] (OhrR 50 μM, DNA 2.5 μM, without CHP and biothiol) is “about 4.3 nm”. Besides, in assay [1] (in the presence of both CHP and a biothiol), the binding thickness result was “about 1 nm”. The Kd in assay [2] is ≤ 1 nM. In assay [3], the “OhrR concentration from which the fluorescent band of dsDNA shifted upward” value is given as “about 1.6 μM”. Further, the “second order reaction rate between a biothiol and the redox-regulating protein” value in assay [4] is “about 10^3 M^−1s^−1”.

One may read the Kd as a measure of binding affinity in units of concentration. Read a high Kd as weaker binding.
